CN116507641A
pEC50: −log10 of the molar value.

Key:
[1] = molecular target: 人结合素-4 (full-length human Nectin-4 on cells) (human) (UniProt Q96NY8); assay: FACS competition: antibody titrated against biotinylated human Nectin-1-His (competitor, 0.75 ug/ml) on CHO-Nectin-4 cells
[2] = molecular target: 人重组结合素-4蛋白 (recombinant human Nectin-4, extracellular domain) (human) (UniProt Q96NY8); assay: ELISA, recombinant human Nectin-4 coated on plate
Chain of 人重组结合素-4蛋白 (recombinant human Nectin-4, extracellular domain) (human) (Q96NY8 32-349): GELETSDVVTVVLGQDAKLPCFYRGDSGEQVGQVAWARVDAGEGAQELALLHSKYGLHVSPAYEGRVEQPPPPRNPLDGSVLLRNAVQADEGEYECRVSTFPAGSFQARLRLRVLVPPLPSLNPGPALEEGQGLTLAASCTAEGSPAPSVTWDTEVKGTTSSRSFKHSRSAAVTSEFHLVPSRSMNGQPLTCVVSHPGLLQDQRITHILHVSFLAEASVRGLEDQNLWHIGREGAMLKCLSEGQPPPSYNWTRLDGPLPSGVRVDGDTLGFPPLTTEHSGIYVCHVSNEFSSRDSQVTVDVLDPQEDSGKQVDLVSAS

Chain of 人结合素-4 (full-length human Nectin-4 on cells) (human) (Q96NY8 32-510): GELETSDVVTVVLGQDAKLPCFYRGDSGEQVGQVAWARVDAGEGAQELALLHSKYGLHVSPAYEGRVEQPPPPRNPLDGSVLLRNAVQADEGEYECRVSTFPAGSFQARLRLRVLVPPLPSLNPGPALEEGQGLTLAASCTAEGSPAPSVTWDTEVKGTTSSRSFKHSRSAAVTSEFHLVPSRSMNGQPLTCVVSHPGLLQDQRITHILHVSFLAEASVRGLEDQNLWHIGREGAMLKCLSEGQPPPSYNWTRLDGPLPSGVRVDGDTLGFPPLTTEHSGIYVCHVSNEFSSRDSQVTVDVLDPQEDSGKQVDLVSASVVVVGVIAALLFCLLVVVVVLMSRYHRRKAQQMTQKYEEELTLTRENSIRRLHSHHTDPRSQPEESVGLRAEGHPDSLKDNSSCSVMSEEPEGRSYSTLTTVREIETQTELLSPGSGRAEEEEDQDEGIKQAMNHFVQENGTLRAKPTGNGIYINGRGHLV

阳性对照1 (PC1), in-house Nectin-4-specific antibody based on enfortumab antibody (AGS-22M6)
pEC50 [1]: 9.80 | pEC50 [2]: 9.47
